Measurements taken from the supplement of paper PMC9112550, “Optimization of the antimicrobial peptide Bac7 by deep mutational scanning” (BMC Biology, 2022).

test system: Escherichia coli TOP10; experiment: shrunken log2 fold change of peptide-encoding DNA abundance (4.5 h post-induction vs induction); higher = less antimicrobial activity (less host growth inhibition); conditions: time post-induction: 4.5 h; library: site-saturation at positions 5, 18, 19, 20
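Also: peptides expressed intracellularly from a pBAD plasmid library in pooled LB shake-flask culture, induced with 0.3% L-arabinose, DNA abundance read by NGS, three biological replicates, DESeq2 with apeglm shrinkage.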

Sequence	shrunken log2 fold change
RRIRWRPPRLPRPRPRPTQVPRP	0.477
RRIRTRPPRLPRPRPRPAWCPRP	0.0035
RRIRPRPPRLPRPRPRPQAAPRP	0.116
RRIRIRPPRLPRPRPRPDDNPRP	-0.27
RRIRFRPPRLPRPRPRPAKWPRP	0.0975
RRIRFRPPRLPRPRPRPHHSPRP	-0.883
RRIRKRPPRLPRPRPRPTRVPRP	0.53
RRIRMRPPRLPRPRPRPHQYPRP	-0.41
RRIRERPPRLPRPRPRPAMMPRP	-0.163
RRIRRRPPRLPRPRPRPDHYPRP	-2.95
RRIRTRPPRLPRPRPRPCQCPRP	-0.195
RRIRDRPPRLPRPRPRPNGMPRP	-0.0609
RRIRQRPPRLPRPRPRPQPSPRP	0.44
RRIRPRPPRLPRPRPRPMKQPRP	0.036
RRIRGRPPRLPRPRPRPLTVPRP	0.48
RRIRMRPPRLPRPRPRPFWGPRP	-0.149
RRIRSRPPRLPRPRPRPCAAPRP	0.312
RRIRIRPPRLPRPRPRPEGEPRP	0.134
RRIRWRPPRLPRPRPRPWFPPRP	-0.0213
RRIRVRPPRLPRPRPRPSADPRP	-0.397
RRIRGRPPRLPRPRPRPTWSPRP	0.977
RRIRPRPPRLPRPRPRPNAGPRP	0.0847
RRIRMRPPRLPRPRPRPTSLPRP	0.546
RRIRFRPPRLPRPRPRPHCWPRP	-0.0304
RRIRYRPPRLPRPRPRPIDLPRP	-0.0513

Sequence	shrunken log2 fold change
RRIRIRPPRLPRPRPRPDEVPRP	-0.0316
RRIRIRPPRLPRPRPRPIWYPRP	-1.64
RRIRWRPPRLPRPRPRPTMCPRP	-0.00672
RRIRPRPPRLPRPRPRPYFEPRP	-0.633
RRIRCRPPRLPRPRPRPVSQPRP	0.201
RRIRDRPPRLPRPRPRPDAVPRP	0.585
RRIRWRPPRLPRPRPRPMIYPRP	-0.542
RRIRNRPPRLPRPRPRPVKVPRP	-0.0708
RRIRKRPPRLPRPRPRPVCYPRP	0.242
RRIRNRPPRLPRPRPRPIKFPRP	-0.165
RRIRMRPPRLPRPRPRPSYIPRP	-0.275
RRIRERPPRLPRPRPRPFTAPRP	-0.227
RRIRMRPPRLPRPRPRPSKDPRP	0.37
RRIRKRPPRLPRPRPRPGWGPRP	0.432
RRIRTRPPRLPRPRPRPKWHPRP	-0.0752
RRIRFRPPRLPRPRPRPIYQPRP	-0.21
RRIRQRPPRLPRPRPRPPKNPRP	0.29
RRIRWRPPRLPRPRPRPKWWPRP	0.266
RRIRERPPRLPRPRPRPAHGPRP	0.131
RRIRRRPPRLPRPRPRPARIPRP	0.0165
RRIRRRPPRLPRPRPRPGAKPRP	0.701
RRIRGRPPRLPRPRPRPNEWPRP	1.8
RRIRHRPPRLPRPRPRPMMIPRP	0.00431
RRIRARPPRLPRPRPRPTHWPRP	0.863
RRIRLRPPRLPRPRPRPTVEPRP	0.114

Sequence	shrunken log2 fold change
RRIRDRPPRLPRPRPRPELPPRP	0.302
RRIRVRPPRLPRPRPRPWYAPRP	-0.299
RRIRTRPPRLPRPRPRPEWAPRP	0.213
RRIRARPPRLPRPRPRPLPMPRP	0.306
RRIRGRPPRLPRPRPRPKAMPRP	0.147
RRIRGRPPRLPRPRPRPHQSPRP	0.12
RRIRARPPRLPRPRPRPAQDPRP	0.232
RRIRLRPPRLPRPRPRPTAKPRP	0.134
RRIRDRPPRLPRPRPRPGVYPRP	0.0379
RRIRRRPPRLPRPRPRPCYVPRP	-0.583
RRIRRRPPRLPRPRPRPYVKPRP	-0.166
RRIRTRPPRLPRPRPRPAKLPRP	0.108
RRIRPRPPRLPRPRPRPKMQPRP	0.132
RRIRERPPRLPRPRPRPVPCPRP	-0.193
RRIRERPPRLPRPRPRPYVFPRP	-0.575
RRIRRRPPRLPRPRPRPHMKPRP	-0.654
RRIRERPPRLPRPRPRPAWMPRP	0.501
RRIRWRPPRLPRPRPRPYSKPRP	-0.492
RRIRDRPPRLPRPRPRPLRKPRP	1.36
RRIRKRPPRLPRPRPRPWKTPRP	0.0649
RRIRMRPPRLPRPRPRPWFGPRP	0.134
RRIRCRPPRLPRPRPRPKMCPRP	-0.164
RRIRARPPRLPRPRPRPFMDPRP	0.00846
RRIRARPPRLPRPRPRPAFFPRP	0.479
RRIRARPPRLPRPRPRPHCQPRP	0.0405

Sequence	shrunken log2 fold change
RRIRWRPPRLPRPRPRPQDCPRP	-0.014
RRIRFRPPRLPRPRPRPMISPRP	-0.446
RRIRPRPPRLPRPRPRPHKPPRP	-0.0376
RRIRYRPPRLPRPRPRPMYVPRP	-0.0549
RRIRERPPRLPRPRPRPHIFPRP	0.116
RRIRMRPPRLPRPRPRPYCWPRP	-0.134
RRIRFRPPRLPRPRPRPKFHPRP	-0.42
RRIRNRPPRLPRPRPRPMVPPRP	0.0885
RRIRCRPPRLPRPRPRPSQVPRP	-0.156
RRIRRRPPRLPRPRPRPHMIPRP	-0.13
RRIRVRPPRLPRPRPRPEGPPRP	0.239
RRIRARPPRLPRPRPRPPWWPRP	1.03
RRIRDRPPRLPRPRPRPCPKPRP	-0.048
RRIRPRPPRLPRPRPRPSHPPRP	-0.03
RRIRGRPPRLPRPRPRPYDRPRP	0.136
RRIRVRPPRLPRPRPRPKRDPRP	0.292
RRIRHRPPRLPRPRPRPGNPPRP	0.0424
RRIRIRPPRLPRPRPRPHGRPRP	-0.0215
RRIRFRPPRLPRPRPRPAMTPRP	0.00388
RRIRTRPPRLPRPRPRPHHKPRP	-0.614
RRIRCRPPRLPRPRPRPIGDPRP	-0.0014
RRIRCRPPRLPRPRPRPCHSPRP	-1.91
RRIRCRPPRLPRPRPRPDQCPRP	-0.00126
RRIRWRPPRLPRPRPRPNCMPRP	-0.302
RRIRSRPPRLPRPRPRPPMHPRP	0.25

Sequence	shrunken log2 fold change
RRIRSRPPRLPRPRPRPWMQPRP	-0.0251
RRIRKRPPRLPRPRPRPEDSPRP	1.28
RRIRKRPPRLPRPRPRPPCGPRP	0.614
RRIRSRPPRLPRPRPRPHFSPRP	-0.112
RRIRFRPPRLPRPRPRPYEDPRP	-0.951
RRIRSRPPRLPRPRPRPRFLPRP	0.159
RRIRQRPPRLPRPRPRPWGCPRP	-0.122
RRIRCRPPRLPRPRPRPHSIPRP	-0.101
RRIRHRPPRLPRPRPRPEFGPRP	0.308
RRIRGRPPRLPRPRPRPFRYPRP	0.0984
RRIRARPPRLPRPRPRPAQQPRP	0.156
RRIRYRPPRLPRPRPRPNMPPRP	-0.304
RRIRTRPPRLPRPRPRPKMRPRP	0.0419
RRIRTRPPRLPRPRPRPTWHPRP	0.153
RRIRNRPPRLPRPRPRPHKPPRP	-0.368
RRIRDRPPRLPRPRPRPMCTPRP	-0.0135
RRIRQRPPRLPRPRPRPAGVPRP	-0.102
RRIRRRPPRLPRPRPRPCADPRP	0.0637
RRIRYRPPRLPRPRPRPPGPPRP	0.455
RRIRWRPPRLPRPRPRPSKYPRP	-0.632
RRIRSRPPRLPRPRPRPFSKPRP	-0.0877
RRIRNRPPRLPRPRPRPWPKPRP	0.0323
RRIRSRPPRLPRPRPRPVHRPRP	-0.0285
RRIRLRPPRLPRPRPRPTRQPRP	-0.0888
RRIRARPPRLPRPRPRPRGVPRP	0.682
